These results are taken from PMC11838735, “Structural basis of collagen glucosyltransferase function and its serendipitous role in kojibiose synthesis” (Research Square, 2025).

The target of data set [1] is human PLOD2b GLT-AC truncation (PLOD2b-GA) (human). As to the kind of experiment: SEC-MALS; the paper calls it SEC-DLS (size exclusion chromatography with dynamic light scattering); Superdex 200 10/300, miniDAWN TREOS and Optilab T-rEX detectors, 20 mM Tris pH 8, 200 mM NaCl, 3 mg ml^-1, 150 μl injected, 0.5 ml min^-1; molar mass across the peak; each protein analyzed once. For orientation: Size exclusion chromatography separates by hydrodynamic size, large species first.

Data set [2] concerns the molecule itself. The data set is described as above.

The stoichiometry N is a count of units in the complex or per binding partner.

“human PLOD2b GLT-AC truncation (PLOD2b-GA) (domain or fragment)” had a stoichiometry N in data set [1] of 2.

B1: mimiviral collagen glucosyltransferase R699, wild type (pET28 construct) (enzyme)
chain: EQSNNDDNLLVLGIGISVHKTDGVLRFEKYCQAHNLQYMIVGEGKKWNGGNLESEAGGGQKINELLIALESIKDNKLIVVCDTYDLIPLSGPEEILRKYRFLTPDNKVVFSSELYCWPDASLVERYPKVDTKYKYLNSGAFMGYRDDIYEMIKNGVKDRDDDQLFFSIKFIETDKIVLDYKCELFQAMYRCNSDLVVHKNRIFNGYTNSYPVFAHGNGPAKKLLNHMEGYFMTEPIDGSSNTINTFKLDNEPKVFFALYVDSNDLSALKQFLGKVASIQYGNKVIYLYDRSDNEQNRKLIQISYPNYHTGVTKYVFDDFKKSDAQFYFLLEQNCIITKKDILHELIMQVKDNHRVISPMIGYEQNSTRTNFWGDIEDGYYKRSENYLDLAKHKVRGLWNVPYVYGVILMHESVVRNWDLSMVKYNDKDMDLCFSLRKHTIFMYMINNNNYGYMV
notes: R699 protein of Acanthamoeba polyphaga mimivirus, collagen galactosylhydroxylysyl glucosyltransferase; gene synthesized by Genscript; The vector has a PreScission site in place of the thrombin site, and no cleavage is described for this construct; also called R699WT; mimiviral R699
Regarding B1, the “stoichiometry N” value in data set [2] turned out to be 2.
